Where no end group is shown, it is not given here.
B1: calmyrin (calcium-binding myristoylated protein with homology to calcineurin), yeast two-hybrid prey in pJG4-5 (clone 7) (other, not shown: large carriers)
chain: MGGSGSRLSKELLAEYQDLTFLTKQEILLAHRRFCELLPQEQRTVESSLRAQVPFEQILSLPELKANPFKERICRVFSTSPAKDSLSFEDFLDLLSVFSDTATPDIKSHYAFRIFDFDDDGTLNREDLSRLVNCLTGEGEDTRLSASEMKQLIDNILEESDIDRDGTINLSEFQHVISRSPDFASSFKIVL
notes: Prey fusion in yeast; also called CIB; KIP
B2: untagged full-length wild type calmyrin expressed in HeLa cells (other)
chain: GGSGSRLSKELLAEYQDLTFLTKQEILLAHRRFCELLPQEQRTVESSLRAQVPFEQILSLPELKANPFKERICRVFSTSPAKDSLSFEDFLDLLSVFSDTATPDIKSHYAFRIFDFDDDGTLNREDLSRLVNCLTGEGEDTRLSASEMKQLIDNILEESDIDRDGTINLSEFQHVISRSPDFASSFKIVL
modifications: myristoylated (NH2 consensus myristoylation site; 3H-myristic acid incorporated)

Columns and labels:
[1] = molecular target: T1, PS2-C term bait (LexA fusion, COOH-terminal sequence of PS2 downstream of the eighth TMD) (human); experiment: yeast two-hybrid liquid beta-galactosidase assay
T1 construct: also called PS2-COOH-terminal construct; PS2-COOH-terminal domain; not shown: LexA moiety of pEG202, NH2-terminal of the bait
Protocol: (§1) All PCR-amplified regions were digested with EcoRI and XhoI, cloned into pEG202, and confirmed by DNA sequencing. These various baits were transformed into EGY48 and found by immunoblotting of yeast extracts to express appropriately sized lexA-PS fusion polypeptides. Three isolates from yeast transformed with the calmyrin in pJG4-5 (clone 7) plus each PS bait or the control lamin bait were assayed for β-galactosidase enzyme activity in liquid cultures using ONPG (O-nitrophenyl β-D-galactopyranoside) as a substrate (Reynolds and Lundblad, 1989).
To quantify the binding specificity of calmyrin to the PS2-loop and to determine if this protein also interacts with the PS1 loop which is 45% identical in amino acid sequence, the galactosidase activity was measured in yeast liquid assays.

[2] = molecular target: T2, PS1-loop C bait (LexA fusion, region of PS1 corresponding to PS2-loop C) (human); experiment: yeast two-hybrid liquid assay, PS1-loop C against PS2-loop C
T2 construct: not shown: LexA moiety of pEG202, NH2-terminal of the bait

[3] = molecular target: T3, PS1-loop C bait with T281P, L282I (human); experiment: yeast two-hybrid liquid assay, mutated PS1-loop C bait against the T281P bait
T3 construct: Range inferred as for PS1-loop C; not shown: LexA moiety of pEG202 (N-terminal fusion partner) and the vector-encoded junction residues
Protocol: (§2) Three isolates from yeast transformed with the calmyrin in pJG4-5 (clone 7) plus each PS bait or the control lamin bait were assayed for β-galactosidase enzyme activity in liquid cultures using ONPG (O-nitrophenyl β-D-galactopyranoside) as a substrate (Reynolds and Lundblad, 1989).
(§3) Further investigation was performed to determine how these three divergent residues influenced calmyrin interaction with the PS-loop C region in yeast two-hybrid assays. […] When both proline and alanine were present together (T281P, T291A) they increased binding substantially, producing an approximately twofold higher level of binding compared with the wild-type PS2-loop bait.

[4] = molecular target: T4, PS1-loop C bait with L282I, T291A (human); experiment: yeast two-hybrid liquid assay, mutated PS1-loop C bait against the T291A bait
T4 construct: Range inferred as for PS1-loop C; not shown: LexA moiety of pEG202 (N-terminal fusion partner) and the vector-encoded junction residues
Protocol: as §2, §3

[5] = molecular target: T5, PS1-loop C bait with T281P (human); experiment: yeast two-hybrid liquid assay, mutated PS1-loop C bait against PS2-loop C bait
T5 construct: Range inferred as for PS1-loop C; not shown: LexA moiety of pEG202 (N-terminal fusion partner) and the vector-encoded junction residues
Protocol: as §2, §3

[6] = molecular target: T6, PS1-loop C bait with T291A (human); experiment: as above
T6 construct: Range inferred as for PS1-loop C; not shown: LexA moiety of pEG202 (N-terminal fusion partner) and the vector-encoded junction residues
Protocol: as §2, §3

[7] = molecular target: T7, PS1-loop C bait with T281P, T291A (human); experiment: as above
T7 construct: Range inferred as for PS1-loop C; also called (T281P, T291A) double mutant; not shown: LexA moiety of pEG202 (N-terminal fusion partner) and the vector-encoded junction residues
Protocol: as §2, §3

[8] = molecular target: T8, PS1-loop B bait (LexA fusion, region of PS1 corresponding to PS2-loop B) (human, UniProt P49768 264-315); experiment: yeast two-hybrid liquid beta-galactosidase assay (ONPG), LexA bait and calmyrin prey
T8 construct: not shown: LexA moiety of pEG202, NH2-terminal of the bait
Protocol: as §1
(§4) To further map the binding site of calmyrin within the PS2-loop, two new baits were constructed which divided the loop into a conserved portion, loop C (28 out of the 31 amino acids are identical to PS1 ), and a divergent region, loop D (only 33% identity to PS1; FIG. 1).

[9] = molecular target: T2, PS1-loop C bait (LexA fusion, region of …); experiment: as above
Protocol: as §1, §4

[10] = molecular target: T9, PS2-loop B bait (LexA fusion, first 50 amino acids of the PS2 loop) (human, UniProt O88777 270-319 (rat entry)); experiment: as above
T9 construct: Range 270-319 follows from 'residues 270-361' and 'the first 50 amino acids of the PS2 loop'; also called PS2-loop bait; loop bait; not shown: LexA moiety of the pEG202 LexA fusion plasmid, NH2-terminal of the bait
Protocol: as §1, §4

[11] = molecular target: T10, PS2-loop C bait (LexA fusion, conserved 31-amino acid loop region of PS2) (human); experiment: as above
T10 construct: Range 270-300 follows from loop start 270 and '31 amino acids'; also called wild-type PS2-loop bait; not shown: LexA moiety of pEG202, NH2-terminal of the bait
Protocol: as §1, §4

[12] = molecular target: T11, PS2-loop D bait (LexA fusion, divergent region of the PS2 loop) (human, also: N-terminal LexA (pEG202) fusion, limits and linker not given here); experiment: as above
T11 construct: Range 301-319 is inferred from loop B being divided into loop C (31 aa) and loop D; not shown: LexA moiety of pEG202, NH2-terminal of the bait
T11 chain: TVGMAKLDPSSQGALQLPY
Protocol: as §1, §4

[13] = molecular target: full-length human presenilin 2 (PS2) expressed in HeLa cells (human, UniProt P49810 1-448); experiment: cell-based or functional assay

T9 sequence (O88777 270-319 limits assumed): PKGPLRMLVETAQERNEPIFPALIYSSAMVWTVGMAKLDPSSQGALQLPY
T1 sequence (chain, as listed by the source limits assumed): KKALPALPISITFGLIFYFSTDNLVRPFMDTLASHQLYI

Binder | binding result [1] | interaction strength relative to the PS2-loop region [2] | fold binding compared with the T281P bait [3] [fold] | binding result [4] | interaction relative to the PS2 level [5] | binding relative to the PS2 level [6] | fold level of binding compared with the wild-type PS2-loop bait [7] [fold] | fold increase in beta-galactosidase activity over lamin B control [8] [fold] | fold increase in beta-galactosidase activity over control [9] [fold] | fold increase in beta-galactosidase activity over lamin B control [10] [fold] | fold increase in beta-galactosidase activity over control [11] [fold] | fold increase in beta-galactosidase activity over control [12] [fold] | cell death (floating HeLa cells), fold over control, on coexpression [13] [fold]
B1 | no binding | < 0.1 fraction of the PS2-loop strength | 1.7 | binds | ~0.5 fraction of the PS2 level | 0.33 fraction of the PS2 level | ~2 | 1.9 | 5.8 | 8.5 | 74 | 2.2 | –
B2 | – | – | – | – | – | – | – | – | – | – | – | – | 5.9

Reference: patent publication US20020064828A1 (UNIVERSITY OF BALTIMORE BIOTECHNOLOGY INSTITUTE, published 2002)
